By EC50 is commonly meant the concentration giving half of the maximal effect. By Kd is commonly meant the equilibrium constant for the complex coming apart.

In test [1] the target is recombinant cynomolgus monkey B7-H3 protein (cynomolgus monkey). The test can be described thus: ELISA, plate coated with cynomolgus monkey B7-H3. In general terms: An ELISA detects its analyte on a solid surface through an enzyme-linked reagent.
The target is the same in test [2]. Briefly: SPR (Biacore), antibody captured on anti-human IgG chip, B7-H3 protein injected.
Test [3] concerns the target T1, recombinant human B7-H3-mFc protein (human) (UniProt Q5ZPR3).
T1 sequence: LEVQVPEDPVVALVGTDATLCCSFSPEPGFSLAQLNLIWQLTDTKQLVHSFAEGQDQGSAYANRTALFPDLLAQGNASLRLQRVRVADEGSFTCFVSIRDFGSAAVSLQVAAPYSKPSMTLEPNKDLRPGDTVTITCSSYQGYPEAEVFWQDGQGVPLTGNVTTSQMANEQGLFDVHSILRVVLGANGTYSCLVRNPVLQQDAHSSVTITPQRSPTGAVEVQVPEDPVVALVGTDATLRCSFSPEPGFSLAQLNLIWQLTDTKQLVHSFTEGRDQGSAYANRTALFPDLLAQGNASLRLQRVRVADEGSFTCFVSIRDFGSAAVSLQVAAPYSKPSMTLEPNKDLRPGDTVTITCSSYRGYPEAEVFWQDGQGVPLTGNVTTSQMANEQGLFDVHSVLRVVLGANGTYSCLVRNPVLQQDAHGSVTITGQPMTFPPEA
The test can be described thus: competitive binding ELISA on B7-H3 protein, no competitor.

For test [4], the target named is T1, recombinant human B7-H3-mFc protein (human). Briefly: competitive binding ELISA on B7-H3 protein, competitor mAb 91H06.
The target is the same in test [5]. The test can be described thus: competitive binding ELISA on B7-H3 protein, competitor Ifinatamab (4 µg/mL).

B1: mAb 91H06 (antibody, V domains shown)
VH: EVQLVESGGGLVQPGGSLRLSCAASGFTFSDYGMGWVRQAPGKGLEWVSSISWDSSSKEYADSVKGRFTISRDNSKNTLYLQMNSLRAEDTAVYYCARAWIAIIGGGAHFDYWGQGTLVTVSS
VL: DIQMTQSPSSLSASVGDRVTITCRASQSVSSHLAWYQQKPGKAPKLLIYLTSSLQSGVPSRFSGSGSGTDFTLTISSLQPEDFATYYCMQSKSLPFTFGQGTKVEIKR
Consider B1, for which the EC50 in test [1] was 0.0244 nM. Moreover, in test [2], the Kd is 0.471 nM.

B2: Ifinatamab-biotin (antibody, INN chains, looked up, V domains shown)
VH: QVQLVQSGAEVKKPGSSVKVSCKASGYTFTNYVMHWVRQAPGQGLEWMGYINPYNDDVKYNEKFKGRVTITADESTSTAYMELSSLRSEDTAVYYCARWGYYGSPLYYFDYWGQGTLVTVSS
VL: EIVLTQSPATLSLSPGERATLSCRASSRLIYMHWYQQKPGQAPRPLIYATSNLASGIPARFSGSGSGTDFTLTISSLEPEDFAVYYCQQWNSNPPTFGQGTKVEIK
modifications: biotin
As for B2, the EC50 is 0.0331 nM in test [3], 0.0346 nM in test [4] and 1.78 nM in test [5].
